One series concerns the target T1, Cx43 hemichannel (Mus musculus, UniProt P23242).
T1 construct: from tissue; host or cells: synovium of male C57BL/6 mice after DMM surgery (in vivo)
In words: In vivo Evans Blue dye uptake assay in synovium after DMM. As to conditions: 25 mg/kg at 30 mins after DMM surgery, Evans Blue 200 mg/kg at two weeks after the treatment; DMM increased opening by 2 folds. On the procedure:
In vivo dye uptake assay. Evans Blue dye (Mw: 900 Da) (200 mg/kg) and FITC-dextran (Mw: 10,000 Da) (200 mg/kg) were co-injected […] post-antibody treatment via the tail vein. One-hour post administration of the dye, mice were anesthetized, and cardiac perfusion was performed with cold PBS and 4% paraformaldehyde. Both hindlimbs were isolated and prepared for frozen sections. Sections were stained with DAPI and photographed using the Keyence microscope (BZ-X710, Keyence, Osaka, Japan). The intensity of dye uptake was quantified by NIH Image J software.
To determine the Cx43 hemichannel activity in vivo, Evans Blue dye uptake assay was performed. Mice were treated with saline or Cx43 antibody (M1 antibody) (25 mg/kg) at 30 mins after DMM surgery. Tail vein injection of Evans Blue dye (200 mg/kg) was performed at two weeks after the treatment, and Evans Blue dye uptake intensity was quantified in synovium region. […] Frozen sections prepared from saline-treated mice were immuno-labeled with the M1 antibody, further validated the role of the M1 antibody in blocking the osteoarthritis induced hemichannel opening in synoviocytes that express Cx43 (FIG. 11C).

The test system of series [1] is post-traumatic OA model (DMM) in male C57BL/6 mice. Kind of series: DMM OA model: Von Frey filament test (paw withdrawal threshold). The class given is in vivo, mouse. Here is the method: Destabilization of the medial meniscus (DMM) surgery was performed on the right knee joint of mice (Glasson S S, et al. Osteoarthritis and cartilage. 2007; 15(9):1061-9). Briefly, a 3 mm longitudinal incision over the distal patella to proximal tibial plateau was made. The joint capsule immediately medial to the patellar tendon was incised with a #15 blade and the joint capsule opened with micro-iris scissors. Blunt dissection of the fat pad over the intercondylar area was then performed to expose the intercondylar region, providing visualization of the meniscotibial ligament of the medial meniscus. Mild hemorrhage from the fat pad upon blunt dissection was controlled by pressure from absorption spears. Sectioning of medial meniscotibial ligament with micro-surgical knife, with the blade directed proximo-laterally, gave destabilization of the medial meniscus (DMM). Sham surgery was performed with the ligament visualized but not transected.
Animal behavioral tests. The paw withdraw threshold was measured using von Frey filaments 0.007 to 2. Mice were placed in acrylic chambers (5.5×10 cm) suspended above a wire mesh grid and allowed to acclimatize to the testing apparatus for 30 minutes prior to experiments. When the mouse was not moving the von Frey filaments were pressed against the plantar surface of the paw until the filament buckled and held for a maximum of 3 seconds. A positive response was noted if the paw was sharply withdrawn on application of the filament. Flinching immediately upon removal of the filament was also considered a positive response (Chaplan S R, et al. Journal of neuroscience methods. 1994; 53(1):55-63; and Bonin R P, et al. Molecular pain. 2014; 10:26). Testing began with filament number 0.4 and progressed according to an up-down method.

Series [2] shares this test system. The class given is in vivo, mouse. On the procedure:
Materials and Methods. Animals and surgery model. The mice used were of C57BL/6 background. The mice were housed in a temperature-controlled room with a light/dark cycle of 12 hours under specific pathogen-free conditions. Food and water were provided ad libitum. Destabilization of the medial meniscus (DMM) surgery was performed on the right knee joint of mice (Glasson S S, et al. Osteoarthritis and cartilage. 2007; 15(9):1061-9). Briefly, a 3 mm longitudinal incision over the distal patella to proximal tibial plateau was made. The joint capsule immediately medial to the patellar tendon was incised with a #15 blade and the joint capsule opened with micro-iris scissors. Blunt dissection of the fat pad over the intercondylar area was then performed to expose the intercondylar region, providing visualization of the meniscotibial ligament of the medial meniscus. Mild hemorrhage from the fat pad upon blunt dissection was controlled by pressure from absorption spears. Sectioning of medial meniscotibial ligament with micro-surgical knife, with the blade directed proximo-laterally, gave destabilization of the medial meniscus (DMM). Sham surgery was performed with the ligament visualized but not transected. Histology. At 8 weeks after the induction of osteoarthritis (OA), the femur and tibia bones isolated from DMM and sham operated mice were fixed in 4% paraformaldehyde for 2 days prior to decalcification with 10% EDTA (pH 7.5) for 3 weeks. The samples were embedded in paraffin, and 5-μm-thick sections were collected on glass slides. Sections were deparaffinized in xylene, followed by a graded series of alcohol washes. To determine the extent of cartilage deterioration, sections were stained with Safranin O/Fast Green. OARSI scoring was performed to evaluate knee joint articular cartilage destruction (Glasson S S, et al. Osteoarthritis and cartilage. 2010; 18 Suppl 3:S17-23). Specifically, both medial femoral condyle and medial tibial plateau were analyzed through three-level sections of the joints and the severity of OA is expressed as the averaged and summed scores for the entire joint. Results. Inhibition of Cx43 hemichannel ameliorates histopathological changes of OA. To investigate the function of Cx43 hemichannel in OA progression, post-traumatic OA model was induced in male C57BL/6 mice by surgically destabilization of the medial meniscus (DMM). The anti-Cx43 hemichannel blocking antibody (M1 antibody) or saline was administered by intraperitoneal injection twice at 30 minutes and four weeks post-surgery (FIG. 1A). Histological staining of Safranin O/Fast Green was utilized to visualize the severity of articular cartilage damage, which was determined using the Osteoarthritis Research Society International (OARSI) scoring system (Glasson S S, et al. Osteoarthritis and cartilage. 2010; 18 Suppl 3:S17-23) by two blinded observers (FIGS. 1B-D). […] Moreover, synovium hyperplasia was quantified by the synovitis score ([…], et al. Pathology, research and practice. 2002; 198(5):317-25; and Huesa C, et al. Annals of the rheumatic diseases. 2016; 75(11):1989-97).

In series [3] the target is T2, Cx43 hemichannels (HCs) in primary mouse chondrocytes (Mus musculus, UniProt P23242).
T2 construct: In primary mouse chondrocytes, ethidium bromide dye uptake assay; endogenous in cells; host or cells: primary mouse chondrocytes
T2 sequence (P23242 whole entry): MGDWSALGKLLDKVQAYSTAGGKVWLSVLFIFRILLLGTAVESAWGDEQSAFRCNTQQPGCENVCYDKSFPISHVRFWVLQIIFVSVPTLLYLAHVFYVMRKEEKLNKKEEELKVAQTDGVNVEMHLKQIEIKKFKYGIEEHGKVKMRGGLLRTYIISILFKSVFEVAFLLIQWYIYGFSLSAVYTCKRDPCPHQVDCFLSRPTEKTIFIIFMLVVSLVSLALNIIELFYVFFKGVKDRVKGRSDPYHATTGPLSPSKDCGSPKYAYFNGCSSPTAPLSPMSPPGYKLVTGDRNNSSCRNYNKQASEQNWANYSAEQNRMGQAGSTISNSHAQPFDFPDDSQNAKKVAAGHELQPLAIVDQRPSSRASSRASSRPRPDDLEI
Kind of series: Ethidium bromide dye uptake assay in primary mouse chondrocytes. The class given is cell-based.

Read-outs that look alike come from different tables or passages of the source.

T1 sequence (P23242 whole entry): as above

B1: M1 antibody: antibody with variable heavy chain SEQ ID NO: 58 and variable light chain SEQ ID NO: 60; inhibits or blocks opening of Cx43 hemichannel (antibody, V domains shown)
VH: EVQLQQPGAELVKPGASVKLSCKASGYTFTSYYMYWVKQRPGQGLEWIGGINPSNGGTNFNEKFKNKATLTVDKSSSTAYMQLSSLTSEDSAVYYCTREGNPYYTMNYWGQGTSVTVSS
VL: DIVMTQSPSSLSVSAGEKVTMSCKSSQSLLNSGNQKTYLAWYQQKPGQPPKLLIYGASTRESGVPDRFTGSGSGTDFTLTISSVQAEDLAVYYCQNDHSYPFTFGSGTKLEIK
For the molecule B1, the “DMM-increased hemichannel opening (Evans Blue dye uptake intensity in synovium region)” value in the series with Cx43 hemichannel was “blocked”. The “response threshold to mechanical stimuli (von Frey)” value in series [1] (4 weeks after DMM, vs saline) was “slight trend of increased response threshold”. The “paw withdrawal threshold relative to saline treated DMM mice” value in series [1] (8 weeks after DMM, i.p. twice) came to 121.4%. In addition, in series [1] (sham mice at 8 weeks), the “paw withdraw threshold in sham mice, saline vs antibody” value is recorded as “No difference”. The “paw withdraw threshold to mechanical stimuli (von Frey)” value in series [1] (single i.p. injection, eight weeks after DMM, vs saline) is “slight trend of increased paw withdraw threshold”. In addition, the “OARSI scores in medial tibial plateau and medial femoral condyle” value is on record as “significant reduction” in series [2] (DMM mice, i.p. twice at 30 minutes and four weeks post-surgery, 8 weeks after DMM, vs saline); “significant reduction” in series [2] (single i.p. injection at 30 minutes post-surgery, eight weeks after DMM). Also, in series [2] (DMM mice, i.p. twice, 8 weeks after DMM, three-level sections), the “Summed OARSI score of MTP and MFC (structural integrity of the articular cartilage)” value was “significantly improved structural integrity”. For the same molecule, in series [2] (mouse, in vivo, ip), the “pathologic changes in the articular cartilage of sham-operated mice” value was “did not exhibit pathologic changes”. For the same molecule, in series [2] (single i.p. injection at 30 minutes post-surgery, eight weeks after DMM, vs saline), the “proteoglycan loss and cartilage erosion (Safranin O/Fast Green)” value was “less proteoglycan loss and cartilage erosion”. In series [3], the “IL-1β treatment induced HCs opening (ethidium bromide dye uptake)” value was “blocked”.

The values above are taken from US20240076371A1, “COMPOSITIONS AND METHODS FOR TREATING OSTEOARTHRITIS, RHEUMATOID ARTHRITIS, AND JOINT AND TENDON DISORDERS” (BOARD OF REGENTS, THE UNIVERSITY OF TEXAS SYSTEM, priority 2021, published 2024).
